Experimental data from patent US20230212319A1, “NOVEL ANTIGEN BINDING DOMAINS AND SYNTHETIC ANTIGEN RECEPTORS INCORPORATING THE SAME” (University of Southern California, priority 2020, published 2023).

Legend:
[1] = test system: target cell lines expressing a non-secretory form of a luciferase; test: Assay for cytotoxic activity (Matador assay, luciferase release); format: cell-based; details: TRAC-targeted T cells, versus construct SEQ ID NO: 23329
Protocol: Cell lines engineered to express luciferases (e.g., GLuc or NLuc) for measuring cytotoxicity of different constructs targeting different cell surface and intracellular antigens are provided in Table C-1. Cells were cultured at 37° C., in a 5% CO2 humidified incubator. The cell lines were obtained from ATCC, NIH AIDS reagent program or were available in the laboratory.
The generation of Chimeric antigen receptor (e.g., 2nd generation CARs, SIRs, Ab-TCR and TFP etc.), the generation and use of GGS-NLuc fusion proteins (Topanga and Malibu-Glo assays), and the generation and use of luciferase (e.g., GLuc) reporter cell lines for measurement of cellular cytotoxicity using the Matador assays have been described (PCT/US2017/024843, PCT/US2017/025602, PCT/US2017/052344, PCT/US2017/064379 and PCT/US2018/53247).
(C) Assay for Cytotoxic Activity in vitro and in vivo: The uninfected T cells or those expressing a control vector or SAR are cocultured with the target cell lines expressing a non-secretory form of a luciferase (such as GLuc, NLuc, Turboluc 16 etc.) for 4-96 hours and induction of cell lysis examined by measuring the luciferase activity as described in PCT/US17/52344.

[2] = test system: target cells; test: Xenograft model in immunodeficient mice; format: in vivo; details: TRAC-targeted T cells, versus construct SEQ ID NO: 23329
Excerpt: Animal models can also be used to measure SAR activity. For example, xenograft model using human cancer associated antigen described herein-specific SAR^+ T cells to treat a primary human pre-B-ALL in immunodeficient mice can be used. Dose dependent SAR treatment response can be evaluated. See, e.g., Milone et al., Molecular Therapy 17(S): 1453-1464 (2009). Assessment of cell proliferation and cytokine production has been previously described, e.g., at Milone et al., Molecular Therapy 17(S): 1453-1464 (2009). Cytotoxicity can be assessed by a standard ^51Cr-release assay or Matador assay. Imaging technologies can be used to evaluate specific trafficking and proliferation of SIRs in tumor-bearing animal models.
The cells expressing the SAR constructs are exposed to RAJI and L363 target cells and tested in functional assays as described above. […] It is also observed that co-expression of the constant chains of both TCRγ and TCRδ can also rescue the expresson of SARs on TFP backbone in αβ T cells in which the expression of endogeneous TCRα and/or TCRβ constant chains has been eliminated by insertion of the SAR expresson cassette at the endogenous TRAC or/and TRBC loci. Exemplary constructs to express TCRγ and TCRδ chains are provided in SEQ ID NO: 23333 and 23334, respectively.

[3] = test system: HepG2 cells; format: cell-based

B1: SEQ ID NO: 23330: targeting construct coexpressing a TCRα constant chain with a SAR on TFP backbone targeting BCMA and CD22, directed to the TRAC locus (protein)
chain: FKIPIEELEDRVFVNCNTSITWVEGTVGTLLSDITRLDLGKRILDPRGIYRCNGTDIYKDKESTVQVHYRMCQSCVELDPATVA
Question: With B1 as the molecule, how does the cytotoxicity [1] read?
Answer: Its cytotoxicity is “greater”.

Question: What about the “in vivo anti-tumor activity against the target cells” value [2] of the same molecule?
Answer: Its value is “greater”.

B2: 22257 (protein)
chain: MGPRLLFWALLCLLGTGPVEAGVTQSPTHLIKTRGQQATLRCSPISGHTSVYWYQQALGLGLQFLLWYDEGEERNRGNFPPRFSGRQFPNYSSELNVNALELEDSALYLCASSLGGPRGLAGLRGDEQFFGPGTRLTVLEGTGGGGSGGGEFDIQMTQSPSSLSASVGDRVTITCKASDHINNWLAWYQQKPGQAPKLLIYGATTLETGVPSRFSGSGSGTDYTLTISSLQPEDFATYYCQQSWNTPWTFGQGTKLEIKRLEGQPKANPTVTLFPPSSEELQANKATLVCLISDFYPGAVTVAWKADGSPVKAGVETTKPSKQSNNKYAASSYLSLTPEQWKSHRSYSCQVTHEGSTVEKTVAPTECSGRADCGFTSESYQQGVLSATILYEILLGKATLYAVLVSALVLMAMVKRKDSRGRAKRSGSGATNFSLLKQAGDVEENPGPTSATMDWIWRILFLVGAATGAHSGPQVQLQESGGGLAQAGGSLRLSCAASGRTFSMGWFRQAPGKEREFVAAITYSGGSPYYASSVRGRFTISRDNAKNTVYLQMNSLKPEDTAVYYCAANPTYGSDWNAENWGQGTQVTVSSGSGGGGSGGGGSGGGGSFEQVQLQQPGAELVKPGASVKMSCKASGYAFSSYWINWMKQKPGQGLEWIGQIYPGDGDTNYNGKFKGRATLTADTSSSTAYMQLSSLTSEDSAVYFCARSITTVVGCAMDYWGQGTSVTVSSTRASTKGPSVFPLAPSSKSTSGGTAALGCLVKDYFPEPVTVSWNSGALTSGVHTFPAVLQSSGLYSLSSVVTVPSSSLGTQTYICNVNHKPSNTKVDKRVEPKSCIPEDTFFPSPESSCDVKLVEKSFETDTNLNFQNLSVIGFRILLLKVAGFNLLMTLRLWSSRAKRSGSGVKQTLNFDLLKLAGDVESNPGPSRGHMTEYKPTVRLATRDDVPRAVRTLAAAFADYPATRHTVDPDRHIERVTELQELFLTRVGLDIGKVWVADDGAAVAVWTTPESVEAGAVFAEIGPRMAELSGSRLAAQQQMEGLLAPHRPKEPAWFLATVGVSPDHQGKGLGSAVVLPGVEAAERAGVPAFLETSAPRNLPFYERLGFTVTADVEVPEGPRTWCMTRKPGA
Question: For B2, which “NFAT-GFP ASSAY: HepG2” value [3] is on record?
Answer: Its value is “RAJI (2+), HepG2 (-/^+)”.

B3: 22256 (protein)
chain: MGPRLLFWALLCLLGTGPVEAGVTQSPTHLIKTRGQQATLRCSPISGHTSVYWYQQALGLGLQFLLWYDEGEERNRGNFPPRFSGRQFPNYSSELNVNALELEDSALYLCASSLGGPRGLAGLRGDEQFFGPGTRLTVLEGTGGGGSGGGEFDIQMTQSPSSLSASVGDRVTITCKASDHINNWLAWYQQKPGQAPKLLIYGATTLETGVPSRFSGSGSGTDYTLTISSLQPEDFATYYCQQSWNTPWTFGQGTKLEIKRLEDLKNVFPPEVAVFEPSEAEISHTQKATLVCLATGFYPDHVELSWWVNGKEVHSGVCTDPQPLKEQPALNDSRYCLSSRLRVSATFWQNPRNHFRCQVQFYGLSENDEWTQDRAKPVTQIVSAEAWGRADCGFTSESYQQGVLSATILYEILLGKATLYAVLVSALVLMAMVKRKDSRGRAKRSGSGATNFSLLKQAGDVEENPGPTSATMDWIWRILFLVGAATGAHSGPEVQLVESGGGLVQAGGSLRLSCAASGRTFSMGWFRQAPGKEREFVAAITYSGGSPYYADSVKGRFTISRDNAKNTVYLQMNSLKPEDTAVYYCAANPTYGSDWNAENWGQGTQVTVSSGSGGGGSGGGGSGGGGSFEQVQLQQPGAELVKPGASVKMSCKASGYAFSSYWINWMKQKPGQGLEWIGQIYPGDGDTNYNGKFKGRATLTADTSSSTAYMQLSSLTSEDSAVYFCARSITTVVGCAMDYWGQGTSVTVSSTRIQNPDPAVYQLRDSKSSDKSVCLFTDFDSQTNVSQSKDSDVYITDKCVLDMRSMDFKSNSAVAWSNKSDFACANAFNNSIIPEDTFFPSPESSCDVKLVEKSFETDTNLNFQNLSVIGFRILLLKVAGFNLLMTLRLWSSRAKRSGSGVKQTLNFDLLKLAGDVESNPGPSRGHMTEYKPTVRLATRDDVPRAVRTLAAAFADYPATRHTVDPDRHIERVTELQELFLTRVGLDIGKVWVADDGAAVAVWTTPESVEAGAVFAEIGPRMAELSGSRLAAQQQMEGLLAPHRPKEPAWFLATVGVSPDHQGKGLGSAVVLPGVEAAERAGVPAFLETSAPRNLPFYERLGFTVTADVEVPEGPRTWCMTRKPGA
Question: Which “NFAT-GFP ASSAY: HepG2” value [3] does the source give for B3 here?
Answer: Its value is “RAJI (+/-), HepG2 (-/^+)”.
